test: soluble on expression in E. coli; label from the status in PepcDB or PDB records

| Sequence | soluble on expression in E. coli |
| --- | --- |
| MSLSKLPLLPTTVIGSYPRPKWLRESIRLHKAGKMSNEDLQEAFNDAVIAVFQDHYKAGVDVPTDGEVRRDEMVEFFAERIKGFKFYGPVRVWGTAYYRKPSVVSKIEYREPMLVDEFTFAKSVSYTDNLKITITGPYTIAEWSYNEYYRNKKDLVFDLAKAINQEIKNLVEAGAKIIQIDEPALHTRKEDVSWGVEAVNEAVKGVNAKLVMHICYGDYSFVAPYFNEIKVDQINFALKIYNYKPLELLKKYGFDKELGAGVVDVHNRKVETSEEVANDIRKILEYFPPEKVWINPDCGLKLLSRKIAYQKLVSMVEGTKVVREELKRKGYSVDEGHHHHHH | not soluble |
| PETLVKVKDAEDQLCRTSHRPCRVGYIELDLNSGKILESFRPEERFPMMSTFKVLLCGAVLSRIDAGQEQLGRRIHYSQNDLVKYSPVTEKHLTDGMTVRELCSAAITMSDNTAANLLLTTIGGPKELTAFLHNMGDHVTRLDRWEPELNEAIPNDERDTTMPVAMATTLRKLLTGELLTLASRQQLIDWMEADKVAGPLLRSALPAGWFIADKSGAGRRGSRGIIAALGPDGKPSRIVVIYTTGSRKKTDERNRQIAEIGASLIKHWGLEQKLISEEDLNSAVDHHHHHH | soluble |
| MSLDHHLQGPVVAGMPNLHSHAFQRGMAGLSESRSGEKDSFWSWRKRMYHFLQVLSPEDVEAIASQLYLEMLKAGYTSVGEFHYLHHAVDGKHYANPAEMSERILAASETTGIGLTHLPVLYRFGGFGSREPSFQQGRFIHEPDEFVSLLEKLSPSFEKHPNRRLGMAPHSLRAVSPDLLSKVLPEFQRLCPGSPLHLHISEQTAEVEECLEWSGLRPVQWFFENLEPDSNWCLIHATHLDSQERRKLAESEVTVGLCPTTEANLGDGIFPMKEFMEEGGGFGIGSDSHVSISLCEELRWLEYQQRLLQRQRNCLREGHHHHHH | soluble |
| MGRKKGLPEFEESAPDGFDPENPYKDPVAMVEMREHIVREKWIQIEKAKILREKVKWCYRVEGVNHYQKCRHLVQQYLDSTRGVGWGKDHRPISLHGPKPEAVEAE | not soluble |
| MLKLARPFIPPLSRNNAISSGIVLTSRRFQSSFTFLSNQSLLSKNQMKSKRKKGSKKAAYHRQPPEHEHTAPLIKQNKTITKKEHSDVRGSHLKKKRSDFSWLPRVPSTSHLKQSDMTTNVLYSGYRPLFINPNDPKLKEDTGSTLYEFAMKLEDLNEPLSPWISSATGLEFFSEWENIPSELLKNLKPFHPPKEKSMNTNELIHVSAKRNTLVDNKTSETLQRKMDEFSKRRGKGRKKSVVTLLQMKKKLEG | not soluble |
| MAKRPSTSKNPAEDDELIIDECRRKLDDDESNDVGAYFEDDNQQGTSYRTPFMPSHLGLIQDQSPDLTMKDLFNRKRSRPQSTGFIDHSQARYYDRYKQQEYTRRNDFMKYCHVCRKKTVGKLRVLPGDLRMRKVWILRSNLDEERSAELWLREMACEGSHGGEFCEAHFPAGSQHMKGNQLIPLDVRPEEGRHSVVEDIQFDFDAIHLQCVFCGRDGPLATMLPFIRNRAKRLRWIEQLASGNETYKNRLLHALRGGVTQFLCDYHISDSSFEINGFGEWRLLKNALPDPRLVASDKRGERKYLVDKCRDEMFWERAMWKSADLLSQNGTADDEDIIVGDDIRQFLTNSVPSEAEQVLHPILQIKQNVEKKLNEADLQPGTSGTSGESNATADNLKIGISEEGVEYSDDSDEENELIEKMGDIPYSKRLCQVCSAVEPIGNEFPNNFPYKFSIRTWPFDECRHKKWLEIMDWPPEFEESMKTLWQKRKTEGALSDSYHFCPINVCQSHLDFRQLPERMEEWHQTFCLLCDTCMSDKSFLVGIPHNFETRTKWANSLFPVKEGNKFQLKKISWLRRRFLRSKPTRYRICVYHFNRKAFQVNQDDKIVLDAEALPLPIDSDDFDLTPRGPNSVCKCVLCDDWKKVEDMVPFRAPHSEAERSFLIDIVIHSDKMTIKKALASLAKTNRPALICNIHFPDGIDPFSIIAERRLMYGVQSECVLCAHANDCTAMIPFPGPDDEKLRTKWINSMCREPWIYRYLSTRLEKPGRHYLCASHFNRNSLRYHAGLGLWRRAAACPVLACTTDEERQEVWDLSKSQPLYHPLILETFDDNGSGRLDYDDVLNFLGTERMRQIETELNFHGRNDSLLRRENRKKNTGRSFYADMPNIYEHGELQEVEDQMEGEEEEVVQEECIIYEEEHHLDEAEELEVIEEEEVVEEIVEQVVDDGVVVGEEM | not soluble |
| MGSDKIHHHHHHMSNEHQLLVGLLKKLKDDALILPTLPEVAMRVQEVVGRPDSSLKQVAEIIGQDAAISARIIKVANSALYSRGVPAENINSAVTRIGLTQIKSIATSVAMEQLFISTNEMVWEVMDEVWRTSIDVTAAACSLLQIYNKKHPGSGLNYDTLTLAGLVHNIGALPVLTEAEAHPEMFTTIEHLRSLVRKMQGPIGRAVLKSWDFAPEVMEVVERWADLPYLGDHVSYLDFIRAAAFYTGELRAGNELEQRLDVFVKRGLPVSPEDLGSDAFLDSYHSIKASYE | not soluble |
| MGSSHHHHHHSSGLVPRGSHADYEVVHDTFEVNFDGWCNLGVDTYLTAVENEGNNGTRGMMVINRSSASDGAYSEKGFYLDGGVEYKYSVFVKHNGTGTETFKLSVSYLDSETEEENKEVIATKDVVAGEWTEISAKYKAPKTAVNITLSITTDSTVDFIFDDVTITRKGMAEANTVYAANAVLKDMYANYFRVGSVLNSGTVNNSSIKALILREFNSITCENEMKPDATLVQSGSTNTNIRVSLNRAASILNFCAQNNIAVRGHTLVWHSQTPQWFFKDNFQDNGNWVSQSVMDQRLESYIKNMFAEIQRQYPSLNLYAYDVVNAAVSDDANRTRYYGGAREPGYGNGRSPWVQIYGDNKFIEKAFTYARKYAPANCKLYYNDYNEYWDHKRDCIASICANLYNKGLLDGVGMQSHINADMNGFSGIQNYKAALQKYINIGCDVQITELDISTENGKFSLQQQADKYKAVFQAAVDINRTSSKGKVTAVCVWGPNDANTWLGSQNAPLLFNANNQPKPAYNAVASIIPQSEWGDGNNPA | soluble |
| MERVNGEDIWQDREIRFDVDHKLLRLINGEIQVAKIEHVEDTKGNNGDRGTMRVTNLRLIWHAASMPRINITIGWNAITGVQSKQTTSLVTRNRGISNEAIYVLAKVSATTTKFEFIFTTTNPASHSKLFNTISSISRAYETTKMYRELKMRGVFIREDGTLKILPQETIIEKVNGVWNLSTETGSLGVFVITNIRVVWYAEMNIGYNVSVPYITLYSVRVRESKFGMALVLETTTSSGEYVLGFRVDPAERLQNLLKTVQSLHKAHLLKPIFGVSYVKEIAEKVEPRKDDDEIDIIDNNEDDVEIDDKIRPDAFASYFDGEHTATDEKQLPVLNPELGLAIEPIRNGFTLHDLWNIHVDV | not soluble |
| MSVAEFDADVIVDARDCIMGRVASQVAEQALDGETVAVVNAERAVITGREEQIVEKYEKRVDIGNDNGYFYPKRPDGIFKRTIRGMLPHKKQRGREAFESVRVYLGNPYDEDGEVLDGTSLDRLSNIKFVTLGEISETLGANKTW | soluble |
| MAGHSMREHEVYSKLRAPPSSRMILRLDGRGFHRLTESLDFDRPYDEAFRDLMIRTCLDLMEEFSPSLIYTFSDEINVLLDSVPFAGRVEKLDSVFSGFASSSFTRGALEAGFSPVKPVSFDCRVIPISSDIVPEYFRSRQDESWRNCLNSYAYWTLRREVGARRAAERLRGLKSDSLHDLLFERGVNISRVPAWQRRGVGVYRVPHRVRGYNPIRDEEVSAVRMRVKVDLELPLFTDEFFEGLMRLEHHHHHH | not soluble |
| GAMDPEFMSTPLPAIVPAARKATAAVIFLHGLGDTGHGWAEAFAGIRSSHIKYICPHAPVRPVTLNMNVAMPSWFDIIGLSPDSQEDESGIKQAAENIKALIDQEVKNGIPSNRIILGGFSQGGALSLYTALTTQQKLAGVTALSCWLPLRASFPQGPIGGANRDISILQCHGDCDPLVPLMFGSLTVEKLKTLVNPANVTFKTYEGMMHSSCQQEMMDVKQFIDKLLPPID | soluble |
| MDVSQWEQFAKHRSAVIRDYGMWIGLMDNNMEPIVDMPAPVSIDAPITRMTPSSCKAVFKTRVDGHIHPMVDYLIAENLAKVDEQGQLIAAAQDAVFLAIEVAQGIRNVYKGVFTVALGDQESPTLLEFNGVCEIQWTLGALPCPSAPYSWTGKWVDLNQDWAGKWSKTRTMADIKVAEVADGFTLSGAADTTIGKLISQSLQAINTMLKSKGRSLPIAVKPVTSNPTSPQLVIRPTDRFIWDEISDLALAAGVTVKCKTWWPSDPPVPGLDLKEPIVVIEITQEE | not soluble |
| MVELCELHMMPEEDQWPDDIDARIAALNFCGEDSMLFESVDPSVSTDSLDSQQFRERCQMKKEDFQLAFADSGHWQSGINDNLTTWGRIRTSEPLDERTASAPDVWNVKRSDSARSPNRPNSLIANFVSGDATRFVDVNDNEIREANEEIIRKDRWRRDSARRCSSGGQNQKRTFADILEKNVTAPTSMAITSSDNEKPPKLDFLAMHHEMPSLCESFTASFRDAIIKMQKCEPLPSITSTNDFPLFFQEDSPDSGLGCSGPSHIEDWQSLSVLLPKHVAEACSFFKSNTQLLTSSTSKTAPQTSTNIVSNCIDRRISGISASANEACRTCYRVRRRIHPPVWAQTAQSKTVLCDCASTPTDTNFSFAPTTSTTRHQLRAKELSIVGLPIYAAKRTLVENVVEGVAAISRGDGSDLLVIAMRCLIEDGLQENVSAWTMIQTVTSKGPATKDVHSIVKQLEECSKTDNVKVEIFFEELIRENSLDCWLCYIVLKEKVLKTLYSENAFLLSASSEYRTLLWRMVDSLSLLPVIEARSDSVHQQFKSMQQWGGASRIASDSRVPKSSSFPARLSTAPSRRSRIPLSTSRISISSTTSTPRSARSPSTTSRIRVASIMGDFTLANFSLSDGEKVSVLSTRGGLARCVRLTTSHSKINNGVIPIEHLLFQ | not soluble |
| MGSDKIHHHHHHMKDVSIVLSGEAGQGIQTVENVLTRVLKDSGFHVFATKEYMSRVRGGNNTTEIRVSSRRVRSFVDRIDVLIPLGKGATERLKNRITEKTLVIGEEEFIKESPGEKIVIPFLNIAKQIGKSIYANSVAIGFLSGLLGADESALKDQITRQFSSKGEDIVNDNIRAALEGYKKGQELSQKIEFDVEKDPSIKNEVLLNGAEAVGLGAIAGGCNFVSSYPMSPSTSVLVFLAQHKNDFGIVVEQAEDEIAAMNMIIGAWYAGARGLVTTSGGGFALMEEALSLAGMIESPAVIHLAQRPGPATGLPTRTEQGDLNLALYAGHGDFPRVIYAPGNVEEAFYLTQKAFNVADKYQVPVFVLTDQYLVDSYYNLPGFDLNELKVEKHFIKTTRDYIRYAITEDGISPRGIPGYGEGLVRVDSDEHDEFGHITEDFNTRVRMVNKRLRKGETLKKEIVKPKLIGDENYRVLLVAWGSTLEPIKEAIEGLDGVALLHFSQVWPIDESVATYFEKAEKVVAVEGNATGQFANLIRQVTGFHIKDRILKYNGLQFSVEELKEKIAEVL | not soluble |
| SGNLDDNKFTWVIKNVPTLNSDMLFSNYFVIGGCSWRVVAHSKENNFKESLSLTLIVAEDSAQKMGCGWSRYAKIIFTLVNQISEILSQRIETMFDQKSSVFSSETMFSIGKFDEHFAGFIVNGEIKIVVEFLEIIDKLVLSKESNPPFKKTKLNNDGEVSKDLIREVPVIMESIVVNGFHVLPSQVEFVKRIFEKHPDVAKEFRPTNRIVKTAYMNVLLSLIETLRQSPREISKNDLDGACGLLRSMKEAGFKLDWLEKKLNEVLEKKEKEESYETRMREIEEEMKDLKAKALDVGAPLRLDDVV | not soluble |
| MTQTVKLDILSDPICPWCYIGKTQLDKALAAIPDHPFVIEWHPFQLNPDMAPEGMDRREYLERKFGGKEGAVRAYAPVVEHAEKAGLAIDFEAMQRTPNTLDAHRLIHWAGVEGKQTEAVDALFAAYFTEGRDIGDAEVLADIADSIGMDAAVVLKLLKSDADRDDIAKRDSHSREMGVSSVPTFIVANQHAVPGAQPPELWEQVIREIMSQIETTSA | not soluble |

Reference: the DeepSol protein solubility set
